Reference: article PMC5700061 (Nature Communications, 2017)
Positions count from the first letter of the chain named. In names and notes the source's numbering stands.

B1: Furin-resistant mouse proNGF (ligand)
chain: EPYTDSNVPEGDSVPEAHWTKLQHSLDTALAAARSAPTAPIAARVTGQTRNITVDPRLFKKAALHSPRVLFSTQPPPTSSDTLDLDFQAHGTIPFNRTHRSAASSTHPVFHMGEFSVCDSVSVWVGDKTTATDIKGKEVTVLAEVNINNSVFRQYFFETKCRASNPVESGCRGIDSKHWNSYCTTTHTFVKALTTDEKQAAWRFIRIDTACVCVLSRKATRRG
B2: s-sortilin A464E (dimerization interface mutant of the mouse sortilin luminal segment) (domain or fragment)
chain: RRGAPAEDQDCGRLPDFIAKLTNNTHQHVFDDLSGSVSLSWVGDSTGVILVLTTFQVPLVIVSFGQSKLYRSEDYGKNFKDITNLINNTFIRTEFGMAIGPENSGKVILTAEVSGGSRGGRVFRSSDFAKNFVQTDLPFHPLTQMMYSPQNSDYLLALSTENGLWVSKNFGEKWEEIHKAVCLAKWGPNNIIFFTTHVNGSCKADLGALELWRTSDLGKTFKTIGVKIYSFGLGGRFLFASVMADKDTTRRIHVSTDQGDTWSMAQLPSVGQEQFYSILAANEDMVFMHVDEPGDTGFGTIFTSDDRGIVYSKSLDRHLYTTTGGETDFTNVTSLRGVYITSTLSEDNSIQSMITFDQGGRWEHLRKPENSKCDATAKNKNECSLHIHASYSISQKLNVPMAPLSEPNAVGIVIAHGSVGDEISVMVPDVYISDDGGYSWAKMLEGPHYYTILDSGGIIVAIEHSNRPINVIKFSTDEGQCWQSYVFTQEPIYFTGLASEPGARSMNISIWGFTESFITRQWVSYTVDFKDILERNCEEDDYTTWLAHSTDPGDYKDGCILGYKEQFLRLRKSSVCQNGRDYVVAKQPSVCPCSLEDFLCDFGYFRPENASECVEQPELKGHELEFCLYGKEEHLTTNGYRKIPGDKCQGGMNPAREVKDLKKKCTSNFLNPTKQNSKSN
modifications: native glycans (HEK293-E)

How the values were obtained:
Details in all cases: both partners purified
[1] = target: T1, Mouse s-sortilin A464E, native glycans (mouse); assay: SPR; MX96 (IBIS); NGF, proNGF and proBDNF amine-coupled to a P-COOH SensEye sensor, s-sortilin flowed over as analyte; 25 mM MES pH 5.0, 150 mM NaCl, 0.005% Tween 20, 25 °C; equilibrium binding, 1:1 Langmuir model
T1 construct: Sortilin (Sort1), mouse, luminal segment, residues 1-722 with A464E; secreted with a cystatin signal peptide; Same limits as Dm1; also called A464E s-sortilin; source: HEK293-E, secreted, purified (Ni-NTA, SEC)

[2] = target: T2, Nerve Growth Factor (NGF), mouse (mouse, UniProt P01139 122-241); assay: SPR; equilibrium binding, IBIS MX96; NGF, proNGF and proBDNF amine-coupled, s-sortilin as analyte; 25 mM MES pH 5.0, 150 mM NaCl, 0.005% Tween 20, 25 °C; 1:1 Langmuir model
T2 construct: Mouse NGF purified from submaxillary glands; the mature neurotrophin as against proNGF; also called Mouse NGF; source: bought: Biorad (purified from submaxillary glands)

[3] = target: T3, furin-resistant mouse proNGF (mouse, UniProt P01139 122-241); assay: as above
T3 chain: B1 chain with A31R, A32R, A62R, A63R

[4] = target: T2, Nerve Growth Factor (NGF), mouse; assay: SPR; equilibrium binding, IBIS MX96; NGF, proNGF and proBDNF amine-coupled, s-sortilin as analyte; 25 mM HEPES pH 7.4, 150 mM NaCl, 0.005% Tween 20, 25 °C; 1:1 Langmuir model
[5] = target: T3, furin-resistant mouse proNGF; assay: as above

Row | Binder | Kd [1] [nM] | fold reduction of binding at pH 5.0 against pH 7.4 [2] [fold] | fold reduction of binding at pH 5.0 against pH 7.4 [3] [fold] | Kd [4] [nM] | Kd [5] [nM]
1 | B1 | 2280 ± 260 |  |  |  | 
2 | B2 |  | 2 | 2 | 320 | 810
